Laboratory results published in US20210079109A1 (Regeneron, published 2021).

How the values were obtained:
[1] = biological target: T1, recombinant human CD63 extracellular loop 2 expressed with a C-terminal Myc-Myc-hexahistidine (human); test: SPR Biacore, mAb captured, 25C
T1 construct: also called hCD63 EC loop 2-MMH; human CD63 EC loop 2-MMH
Outline: (§1)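 Anti-CD63 mAbs captured on anti-mouse Fc or anti-human Fab surfaces; CD63 EC2 reagents flowed in HBS-ET, pH 7.4, at 25° C or 37° C. ka and kd from 1:1 binding model with mass transport limitation; KD and t½ calculated from kinetic rates.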

[2] = biological target: T2, recombinant human CD63 extracellular loop 2 expressed with a C-terminal human Fc tag (human); test: SPR Biacore, mAb captured, 25C
T2 construct: also called hCD63 EC loop 2-hFc; human CD63 EC loop 2-Fc
T2 sequence (chain, as listed by the source limits assumed): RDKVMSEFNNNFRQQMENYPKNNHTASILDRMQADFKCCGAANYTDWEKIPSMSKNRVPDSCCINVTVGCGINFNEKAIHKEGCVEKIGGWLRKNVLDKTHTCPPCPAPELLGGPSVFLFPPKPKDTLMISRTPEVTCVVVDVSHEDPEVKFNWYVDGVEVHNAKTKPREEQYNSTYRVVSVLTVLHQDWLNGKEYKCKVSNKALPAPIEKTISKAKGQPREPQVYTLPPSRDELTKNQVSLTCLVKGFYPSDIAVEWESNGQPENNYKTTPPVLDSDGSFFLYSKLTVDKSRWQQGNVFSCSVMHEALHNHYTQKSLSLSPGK
Outline: as §1

[3] = biological target: T3, human CD63 (human, UniProt P08962 2-238); test: ECL, NIH3T3/hCD63 cells; NIH3T3/hCD63 cells (engineered, CD63 overexpressed): binds
T3 construct: stably transfected in NIH3T3/hCD63; The cell line is named under assay; also called hCD63
T3 sequence: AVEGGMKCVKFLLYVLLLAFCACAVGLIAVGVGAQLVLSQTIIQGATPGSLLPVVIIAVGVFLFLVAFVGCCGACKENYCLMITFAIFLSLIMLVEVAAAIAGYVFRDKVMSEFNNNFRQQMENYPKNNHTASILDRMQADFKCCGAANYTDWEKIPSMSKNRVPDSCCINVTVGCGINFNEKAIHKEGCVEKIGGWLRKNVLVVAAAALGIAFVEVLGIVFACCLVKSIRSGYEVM
Description: (§2) LNCAP cells were determined to have a lower human CD63 copy number than U87MG cells. Non-transfected NIH3T3 cells, which have no detectable expression of human CD63 by fluorescence activated cell sorting (FACS), were included as a negative control.
(§3) Briefly, cell lines were rinsed once in PBS buffer without Ca²⁺/Mg²⁺ and incubated for 10 minutes at 37° C. with Enzyme Free Cell Dissociation Solution (Millipore, Cat #S-004-C) to detach the cells. Cells were then washed once with PBS with Ca²⁺/Mg²⁺ and counted with a Cellometer™ Auto T4 cell counter (Nexcelom Bioscience, LLC). Approximately 2.0×10⁴ NIH3T3/hCD63, LNCAP, U87MG or NIH3T3 cells were seeded separately onto 96-well carbon electrode plates […]) and were then incubated for one hour at 37° C. Nonspecific binding sites were blocked with 2% BSA (w/v) in PBS with Ca²⁺/Mg²⁺ for one hour at room temperature (RT). […] Plates were washed and then incubated with Read Buffer (MSD, Cat #R92TD-2) according to the manufacturer's instructions. Luminescent signals were measured using a SECTOR Imager (MSD).

[4] = biological target: T1, recombinant human CD63 extracellular …; test: SPR Biacore, mAb captured, 37C
Outline: as §1

[5] = biological target: T2, recombinant human CD63 extracellular …; test: SPR Biacore, mAb captured, 37C
Outline: as §1

[6] = biological target: T3, human CD63; test: ECL, U87MG cells; U87MG cells (endogenous CD63), ratio at 3.7 nM Ab: binds, EC50 inconclusive
Description: as §2, §3

[7] = biological target: T3, human CD63; test: ECL, NIH3T3/hCD63 cells; NIH3T3/hCD63 cells, ratio at 3.7 nM Ab: binds
Description: as §2, §3

[8] = biological target: T3, human CD63; test: ECL, LNCAP cells; LNCAP cells (lower CD63 copy number), ratio at 3.7 nM Ab: non-binder
Description: as §2, §3

T1 sequence (chain, as listed by the source limits assumed): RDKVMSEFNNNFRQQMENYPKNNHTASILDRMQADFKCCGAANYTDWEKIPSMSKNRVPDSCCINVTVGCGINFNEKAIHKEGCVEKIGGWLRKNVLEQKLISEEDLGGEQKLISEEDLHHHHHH

B1: H4H11998P2 (antibody, V domains shown)
VH: QVQLVESGGGLVKPGGSLRLSCAASGFSFSDYYITWIRQAPGKGLEWVSYINTGGYTMYYADSVKGRFTISRDNAKNSLYLQMNNLRAEDTAVYYCTRDRRYNFGLDYWGQGTLVTVSS
VL: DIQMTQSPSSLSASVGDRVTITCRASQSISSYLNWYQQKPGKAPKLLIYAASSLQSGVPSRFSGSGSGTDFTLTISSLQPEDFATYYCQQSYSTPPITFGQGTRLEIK
100 nM Ag Bound (RU) [1]: 11 RU | Kd [1]: 11700 nM | koff [1]: 0.0309 s⁻¹ | kon [1]: 2640 M⁻¹ s⁻¹ | t1/2 [1]: 0.4 min | 100 nM Ag Bound (RU) [2]: 136 RU | Kd [2]: 2.58 nM | koff [2]: 0.000453 s⁻¹ | kon [2]: 175000 M⁻¹ s⁻¹ | t1/2 [2]: 26 min | EC50 [3]: 7.4 nM | 100 nM Ag Bound (RU) [4]: 3 RU | Kd [4]: 174 nM | koff [4]: 0.0917 s⁻¹ | kon [4]: 528000 M⁻¹ s⁻¹ | t1/2 [4]: 0.1 min | 100 nM Ag Bound (RU) [5]: 111 RU | Kd [5]: 6.5 nM | koff [5]: 0.00207 s⁻¹ | kon [5]: 318000 M⁻¹ s⁻¹ | t1/2 [5]: 6 min | binding ratio at 3.7 nM vs NIH3T3 [6]: 5 fold | binding ratio at 3.7 nM vs NIH3T3 [7]: 14 fold | binding ratio at 3.7 nM vs NIH3T3 [8]: 1 fold
